Experimental findings from patent US20100047893A1 (RESEARCH FOUNDATION OF STATE UNIVERSITY OF NEW YORK, published 2010) are described below.

The data set concerns the molecule itself. The experiment in a line: nondenaturing 4-20% PAGE and western blot of 1 ug recombinant TbPRMT7-His.

B1: recombinant TbPRMT7-His (enzyme)
chain: MPPKQHRHQKKDKNDNALQNTIGFVPPGATLASVSGYRPPDAFVNRIDRNIPVPARLRHTPVSLIEAVNDFHYAMMNDEERNNFYYEVLKKHVTPETGVLEIGAGSGLLSLMAAKLGAKWVVAVEGSEELAKLARENIRANNMEHQVKVLHMMSTELKSKHLPEPPDVLLSEIFGTMMLGESALDYVVDVRNRLLKPTTKIIPQFGTQYAVPIECDALHRISSVSGWRDLDLKHMMTLQDTVSIVFAKHYGIRMNSVNFRRLSDPIELFRVDFSSSNRNDIPRRKHFDVVAKESGTAHAMLFYWKVTDDEFVMSTDPEDTVNNFPRDMQWGQALQLLDASNGPLPTPVVFTEGKNYNFECNFSGDRVILHMQLCPESGNGEMTECEGKTT
notes: also called T. brucei PRMT7; Tb927.7.5490; not shown: His tag
On to B1, for which the binding result is on record as “binds”.
